The text below walks through data of patent publication US11155602B2, “Polypeptides targeting HIV fusion” (priority 2015, dated 2021).

Changes are numbered by the printed parent chain. Where only a bound is given, the exact number is not on record here.

The experiment concerns NL-Rluc virus. Description: Combinectin potency assay: antiviral EC50, NL-Rluc virus in MT-2 cells, luciferase readout. Format: cell-based, HIV-1. In a few lines: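 MT-2 cells infected with replication-competent NL-Rluc HIV (nef replaced by Renilla luciferase) at MOI 0.01 for 1 h, then added to threefold-diluted peptides (11 concentrations, triplicate). After 4–5 days, luciferase measured by Dual Luciferase; EC50 relative to no-peptide wells.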

[1] abbreviates: Anti-N17 Adnectin - HIV fusion peptide inhibitor Combinectin, Table 4.

B1: 137 (protein)
chain: MGVSDVPRDLEVVAATPTSLLISWHDGIGEERYYRITYGETGGNSPVQEFTVPMDDITATISGLKPGVDYTITVYAVTVGDVISVLHEPISINYRTEIDKPSQHHHHHH
modifications: Adnectin
Take B1: the concentration giving a half-maximal response (EC50) (Anti-N17 Adnectin, Table 3) turned out to be 80 nM.

B2: 415 (protein)
chain: MGHHHHHHGVSDVPRDLEVVAATPTSLLISWDAPAVTVRYYRITYGETGGNSPVQEFTVPGSKSTATISGLKPGVDYTITVYAVTGRGESPASSKPISINYRTEIDGGGGSGGGGSGGGGSGGGGSRIEALIRAAQEQQEKNEAALRELFKWAS
modifications: Anti-N17 Adnectin - HIV fusion peptide inhibitor Combinectin
Take B2: the EC50 under setting [1] was greater than 1000 nM.

B3: 419 (protein)
chain: B2 chain with F150Q
modifications: Anti-N17 Adnectin - HIV fusion peptide inhibitor Combinectin
Consider B3, for which the EC50 under setting [1] is greater than 1000 nM.

B4: 423 (protein)
chain: B2 chain with F150Y, A153T
modifications: Anti-N17 Adnectin - HIV fusion peptide inhibitor Combinectin
B4: the EC50 under setting [1] was 122 nM.

B5: 416 (protein)
chain: B2 chain with E140Q, F150D
modifications: Anti-N17 Adnectin - HIV fusion peptide inhibitor Combinectin
For B5, the EC50 under setting [1] is greater than 1000 nM.

B6: 418 (protein)
chain: B2 chain with F150L
modifications: Anti-N17 Adnectin - HIV fusion peptide inhibitor Combinectin
In the case of B6, under setting [1], the EC50 was 218 nM.

B7: 417 (protein)
chain: B2 chain with F150Y
modifications: Anti-N17 Adnectin - HIV fusion peptide inhibitor Combinectin
For the molecule B7, the EC50 under setting [1] came out at 428 nM.

B8: 411 (protein)
chain: MGHHHHHHGGSVSDVPRDLEVVAATPTSLLISWEYKVNAYRYYRITYGETGGNSPVQEFTVPSVLSTATISGLKPGVDYTITVYAVTYGVDSDPISINYRTEIDGGGGSGGGGSGGGGSGGGGTIAEYAARIEALIRAAQEQQEKNEAALRELYKWAS
modifications: Anti-N17 Adnectin - HIV fusion peptide inhibitor Combinectin
For the molecule B8, the EC50 under setting [1] is 4340 nM.

B9: 428 (protein)
chain: MGHHHHHHTSGVSDVPRDLEVVAATPTSLLISWDAPAVTVGWYHIGYNVEGEPASYQYFRVPGSKSTATISGLKPGVEYMIFVNAVTGSGAREEFSLPISINYRTEIDGGGGSGGGGSGGGGSGGGGSEYEARIEALIRAAQEQQEKNEAALRELDKWTGVWGNYEKV
modifications: Anti-N17 Adnectin - HIV fusion peptide inhibitor Combinectin
On to B9, for which the EC50 under setting [1] was 50 nM.

B10: 414 (protein)
chain: B9 chain
modifications: Anti-N17 Adnectin - HIV fusion peptide inhibitor Combinectin
Turning to B10, the half-maximal effective concentration (EC50) under setting [1] came to 4 nM.

B11: 413 (protein)
chain: MGHHHHHHGVSDVPRDLEVVAATPTSLLISWKYKVHPYRYYRITYGETGGNSPVQEFTVPSVLSTATISGLKPGVDYTITVYAVTYGVNSLPISINYRTEIDGGGGSGGGGSGGGGSGGGGTEYEARIEALIRAAQEQQEKNEAALRELKEWASIWN
modifications: Anti-N17 Adnectin - HIV fusion peptide inhibitor Combinectin
For B11, the half-maximal effective concentration (EC50) under setting [1] is 6 nM.

B12: 421 (protein)
chain: MGHHHHHHGVSDVPRDLEVVAATPTSLLISWVAGAEDYQYYRITYGETGGNSPVQEFTVPHDLVTATISGLKPGVDYTITVYAVTDMMHVEYTEHPISINYRTEIDGGGGSGGGGSGGGGSGGAIAEYAARIEALIRAAQEQQEKNEAALRELDKWAS
modifications: Anti-N17 Adnectin - HIV fusion peptide inhibitor Combinectin
With B12, under setting [1], the concentration giving a half-maximal response (EC50) amounted to 50 nM.

B13: 138 (protein)
chain: MGVSDVPRDLEVVAATPTSLLISWHYPFEGYVTYYRITYGETGGNSHVQEFTVPVGYTTATISGLKPGVDYTITVYAVTSSKGYVYFPISINYRTEIDKPSQHHHHHH
modifications: Adnectin
In the case of B13, for the setting “Anti-N17 Adnectin, Table 3”, the EC50 is 3300 nM.

B14: 350 (protein)
chain: MGHHHHHHGGSVSDVPRDLEVVAATPTSLLISWEYKVHPYRYYRITYGETGGNSPVQTFTVPSVLSTATISGLKPGVDYTITVYAVTYGDDSAPISINYRTEID
modifications: Adnectin
Consider B14, for which the half-maximal effective concentration (EC50) (Anti-N17 Adnectin, Table 3) came out at 191 nM.

B15: 355 (protein)
chain: B14 chain with H38S, P39T, T58E
modifications: Adnectin
In the case of B15, the EC50 (Anti-N17 Adnectin, Table 3) is greater than 1000 nM.

B16: 358 (protein)
chain: B14 chain with T58E, A93T
modifications: Adnectin
As to B16, under “Anti-N17 Adnectin, Table 3”, the EC50 is greater than 1000 nM.

B17: 352 (protein)
chain: B14 chain with T58E, D91L
modifications: Adnectin
Take B17: the concentration giving a half-maximal response (EC50) (Anti-N17 Adnectin, Table 3) was determined as 77 nM.

B18: 356 (protein)
chain: B14 chain with T58E, T69E, I70L
modifications: Adnectin
In the case of B18, under “Anti-N17 Adnectin, Table 3”, the concentration giving a half-maximal response (EC50) was determined as 31 nM.

B19: 351 (protein)
chain: B14 chain with T58A, D90K
modifications: Adnectin
For the molecule B19, the EC50 (Anti-N17 Adnectin, Table 3) is 215 nM.

B20: 361 (protein)
chain: B14 chain with H38Y, P39H, Y40G, T58E
modifications: Adnectin
As for B20, the EC50 (Anti-N17 Adnectin, Table 3) was greater than 1000 nM.

B21: 354 (protein)
chain: B14 chain with H38S, P39A, Y40W, T58E
modifications: Adnectin
As to B21, for the setting “Anti-N17 Adnectin, Table 3”, the 50% effective concentration (EC50) is greater than 1000 nM.

B22: 362 (protein)
chain: B14 chain with T58E, T69K, I70L
modifications: Adnectin
B22: for the setting “Anti-N17 Adnectin, Table 3”, the half-maximal effective concentration (EC50) came to 121 nM.

B23: 357 (protein)
chain: B14 chain with T58E, D91L
modifications: Adnectin
As for B23, the EC50 (Anti-N17 Adnectin, Table 3) came out at 178 nM.

B24: 353 (protein)
chain: B14 chain with T58E, A93G
modifications: Adnectin
For the molecule B24, the concentration giving a half-maximal response (EC50) (Anti-N17 Adnectin, Table 3) came out at 19 nM.

B25: 359 (protein)
chain: B14 chain with H38S, P39A, T58E
modifications: Adnectin
As to B25, the EC50 (Anti-N17 Adnectin, Table 3) was greater than 1000 nM.

B26: 360 (protein)
chain: B14 chain with H38T, P39G, T58E
modifications: Adnectin
On to B26, for which, under “Anti-N17 Adnectin, Table 3”, the EC50 was greater than 1000 nM.

B27: 363 (protein)
chain: B14 chain with T58E, D90N
modifications: Adnectin
For the molecule B27, the concentration for a half-maximal effect (EC50) (Anti-N17 Adnectin, Table 3) amounted to 130 nM.

B28: 420 (protein)
chain: MGHHHHHHGGSVSDVPRDLEVVAATPTSLLISWEYKVHPYRYYRITYGETGGNSPVQEFTVPSVLSTATISGLKPGVDYTITVYAVTYGDDSAPISINYRTEIDGGGGSGGGGSGGGGSGGGGSRIEALIRAAQEQQEKNEAALRELDKWAS
modifications: Anti-N17 Adnectin - HIV fusion peptide inhibitor Combinectin
As to B28, the EC50 under setting [1] was 8 nM.

B29: 412 (protein)
chain: MGHHHHHHGGSVSDVPRDLEVVAATPTSLLISWEYKVNAYRYYRITYGETGGNSPVQEFTVPSVLSTATISGLKPGVDYTITVYAVTYGVDSDPISINYRTEIDGGGGSGGGGSGGGGSGGGGSEYEARIEALIRAAQEQQEKNEAALRELYKWAS
modifications: Anti-N17 Adnectin - HIV fusion peptide inhibitor Combinectin
In the case of B29, under setting [1], the EC50 amounted to 2980 nM.

B30: 424 (protein)
chain: MGHHHHHHGGSVSDVPRDLEVVAATPTSLLISWEYKVNAYRYYRITYGETGGNSPVQEFTVPSVLSTATISGLKPGVDYTITVYAVTYGVDSDPISINYRTEIDGGGGSGGGGSGGGGSGGGGARIEEYAARIEALIRAAQEQQEKNEAALRELYKWAS
modifications: Anti-N17 Adnectin - HIV fusion peptide inhibitor Combinectin
On to B30, for which, under setting [1], the 50% effective concentration (EC50) turned out to be 39 nM.

B31: 422 (protein)
chain: MGHHHHHHGVSDVPRDLEVVAATPTSLLISWKYKVHPYRYYRITYGETGGNSPVQEFTVPSVLSTATISGLKPGVDYTITVYAVTYGVNSLPISINYRTEIDGGGGSGGGGSGGGGSGGGGTEYEARIEALIRAAQEQQEKNEAALRELDK
modifications: Anti-N17 Adnectin - HIV fusion peptide inhibitor Combinectin
As to B31, the EC50 under setting [1] amounted to 3 nM.
